# Laboratory results: paper PMC7614608
# How the values were obtained:
# ALYREFN (human) = assay: filter binding; details: Filter binding: 150 mM KCl, 20 mM HEPES pH 7.9, 2 mM MgCl2, 5% glycerol, 0.5 mM TCEP, +/-1 mM ATPgS, 50 nM RNA, 20 C, 45 min; EJC assembly for TREX-EJC-RNA: …
# UAP56 (human) = assay: filter binding; details: Filter binding: 150 mM KCl, 20 mM HEPES pH 7.9, 2 mM MgCl2, 5% glycerol, 0.5 mM TCEP, +/-1 mM ATPgS, 50 nM RNA, 20 C, 45 min; EJC assembly for TREX-EJC-RNA: …
# [1] = biological target: ALYREF UBM (Homo sapiens) (UniProt Q86V81); details: cited from earlier work
# Chain of UAP56 (Q13838 2-428): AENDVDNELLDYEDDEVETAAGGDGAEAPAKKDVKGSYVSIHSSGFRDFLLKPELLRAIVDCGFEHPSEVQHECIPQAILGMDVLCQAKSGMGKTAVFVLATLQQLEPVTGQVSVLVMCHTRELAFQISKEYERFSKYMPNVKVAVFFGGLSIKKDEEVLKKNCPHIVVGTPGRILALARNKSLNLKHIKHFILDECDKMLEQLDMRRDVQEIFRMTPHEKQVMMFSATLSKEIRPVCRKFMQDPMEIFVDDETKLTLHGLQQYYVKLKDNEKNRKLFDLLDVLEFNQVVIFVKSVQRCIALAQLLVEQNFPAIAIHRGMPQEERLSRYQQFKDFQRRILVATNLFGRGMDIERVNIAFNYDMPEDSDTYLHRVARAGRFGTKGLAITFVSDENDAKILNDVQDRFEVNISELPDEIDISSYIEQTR
Substance,Kd (ALYREFN (human)) [nM],Kd (UAP56 (human)) [nM],Kd [1] [nM]
400-nt AdML RNA,600,900,–
UAP56 (from UniProt Q13838),–,–,2900
